# Assay results: the RNAGym collection of RNA variant scans (doi:10.7554/elife.90254)
# B1: LINE1-full (parent)
# chain: UACGUAGGUGGUUUUCCCCUGAUAGUGCUAAGGGGGCCUGGAAGUUUGGACUGGGCAGAGCUCAACACAGCGUGGCAAAGUGGCUGUGGCUAGACUGCCUCUCUGGAUUCCUCGUCACUCAGCAGGGCAUCUCUGAGAGAAAUGCC
# Variants of: B1
# Assay: self-cleavage, relative activity (ratio to wild type); higher = more cleavage; in vitro, sequencing; the parent is a self-cleaving ribozyme
row,Variant,self-cleavage
1,G41U C103A,1.11
2,A42G C113U,1.12
3,A42U U115A,1.39
4,A42U U115G,1.04
5,A42U U115C,1.15
6,A43C U112C,2.1
7,A42G G122A,0.92
8,G44A A121G,1.21
9,A42C A94G,0.28
10,A42C A138G,1.05
11,A43G A117U,1.93
12,A43G A117G,0.71
13,A43G G72U,1.32
14,A42U U52C,0.54
15,A42G A64G,0.28
16,A43G A69U,0.08
17,A43G A69G,0.58
18,A43G U108A,0.71
19,A43U A79U,2.2
20,A43U A79G,0.97
21,A43G U45G,1.53

row,Variant,self-cleavage
1,A42U A141G,0.9
2,G41A A142G,1.18
3,A42G G89A,0.03
4,A42G G89C,0
5,A42G G89U,0.02
6,A43G C63G,0.1
7,A42G G127U,1.9
8,A43G U46A,1.17
9,A43G U52G,1.64
10,G44A A79U,1.89
11,G44A A79G,0.99
12,G41A A57U,0.11
13,A43U G89A,0.06
14,A42U A59G,0.12
15,A43G C123U,1.21
16,A43G A92G,0.22
17,A43U G82A,1.4
18,A42G A136G,1.53
19,A42G A136U,1.4
20,G44A A64G,0.33
21,G44A A64U,0.4

row,Variant,self-cleavage
1,G41C U46A,0.25
2,A43G A77U,1.05
3,A43G U115C,1.52
4,A43G U115A,0.95
5,A43G U115G,1.02
6,A43G C95U,0.16
7,A42U U46C,1.37
8,G41U C145U,0.75
9,A42G G106U,1.1
10,A43G A79C,2.63
11,G40A U115A,1.17
12,G40A U115C,1.18
13,A42G U108A,0.71
14,A43G G126U,1.28
15,A43G G127U,1.87
16,A42U A65G,0.06
17,G41A A69U,0.06
18,A42U A138U,1.34
19,A43G U96C,0.09
20,A43G G75U,0.99
21,G40U A124G,0.87

row,Variant,self-cleavage
1,G41A,1.16
2,G41C,1.22
3,G41U,1.19
4,A43U A141G,1.38
5,A42G U104C,1.81
6,A42G U104A,1.13
7,A42G G80C,0.62
8,A43U U104C,1.67
9,A43C A141U,1.46
10,A43C A92G,0.18
11,A42U U81A,1.39
12,A43G C110U,1.8
13,A43G U81G,1.12
14,A43G U81A,1.68
15,A42G U85A,0.15
16,A42U U96C,0.06
17,A43G C128G,0.77
18,G41U A121G,1.53
19,A43C U109C,0.26
20,A43U U47C,2.03
